Patent US20090010911A1, “METHODS AND COMPOSITIONS FOR AFFECTING CYCLOPHILIN A REGULATION OF KINASES IN MODULATING CELLULAR ACTIVITIES” (IOWA STATE UNIVERSITY RESEARCH FOUNDATION, INC., priority 2007, published 2009)

Assays:
Itk LKD enzyme = biological target: T1, Itk LKD enzyme (Mus musculus, UniProt Q03526); test: Quantitative kinase assay, Km determination for Peptide B and PLCγ1 SH2C-Peptide B fusion; assay type: biochemical; conditions: phosphorylation by Itk LKD enzyme 0.9 μM, 200 μM ATP, room temperature
T1 construct: linker kinase domain (Itk LKD); made in house; host or cells: Sf9 insect cells (baculovirus), co-infected 1:1 with Lck baculovirus
T1 sequence (Q03526 344-625 limits assumed): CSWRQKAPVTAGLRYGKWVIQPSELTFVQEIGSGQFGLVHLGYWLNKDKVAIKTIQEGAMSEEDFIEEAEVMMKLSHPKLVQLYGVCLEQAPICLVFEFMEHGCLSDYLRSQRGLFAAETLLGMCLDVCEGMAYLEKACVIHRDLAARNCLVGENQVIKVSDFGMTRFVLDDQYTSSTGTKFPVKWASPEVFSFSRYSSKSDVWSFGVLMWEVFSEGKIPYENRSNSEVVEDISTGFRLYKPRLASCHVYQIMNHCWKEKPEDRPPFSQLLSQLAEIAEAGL
Description: 5(a) Construction of a PLCγ1 SH2C-Peptide B fusion protein was based on alignment of Y783 within the PLCγ1 linker and the Tyr of Peptide B. The 14 amino acids of Peptide B were used to replace the last 16 amino acids of PLCγ1 SH2C-Y783-. The Tyr that is phosphorylated in each substrate is boxed. A mutant construct is also shown that contains serine in place of the tyrosine of peptide B. This site was mutated to serine instead of phenylalanine due to solubility problems associated with the Tyr to Phe mutation. 5(b) FLAG-tagged Itk LKD enzyme (1 μM) was incubated with 20 μM of the PLCγ1 SH2C-Peptide B fusion protein (lane 4) or 20 μM of the PLCγ1 SH2C-Peptide B(YS) mutant protein (lane 5) in an in vitro kinase assay. Lanes 1-3 are Itk enzyme alone, PLCγ1 SH2C-Peptide B substrate alone and PLCγ1 SH2C-Peptide B(YS) substrate alone, respectively, that have each been subjected to the same in vitro kinase assay conditions. (c & d) FLAG-tagged Itk LKD enzyme was incubated with increasing amounts of biotinylated PLCγ1 SH2C-Peptide B 5(c) or biotinylated Peptide B alone 5(d) in an in vitro kinase assay. 5(e) Kinetic parameters describing phosphorylation of Peptide B and the PLCγ1 SH2C-Peptide B fusion protein by Itk. Data shown are the average of two independent experiments. […]

Itk full-length enzyme [1] = biological target: T2, Itk full-length enzyme (Mus musculus, UniProt Q03526); test: In vitro kinase assay with western blotting, phosphorylation of SH2 domain-containing substrates with added free SH2 domain or CypA; assay type: biochemical
T2 construct: Full-length Itk, Btk and Tec and the Itk kinase domain fragments were PCR amplified; made in house; host or cells: Sf9 insect cells (baculovirus), co-infected 1:1 with Lck baculovirus
T2 sequence (Q03526 1-625): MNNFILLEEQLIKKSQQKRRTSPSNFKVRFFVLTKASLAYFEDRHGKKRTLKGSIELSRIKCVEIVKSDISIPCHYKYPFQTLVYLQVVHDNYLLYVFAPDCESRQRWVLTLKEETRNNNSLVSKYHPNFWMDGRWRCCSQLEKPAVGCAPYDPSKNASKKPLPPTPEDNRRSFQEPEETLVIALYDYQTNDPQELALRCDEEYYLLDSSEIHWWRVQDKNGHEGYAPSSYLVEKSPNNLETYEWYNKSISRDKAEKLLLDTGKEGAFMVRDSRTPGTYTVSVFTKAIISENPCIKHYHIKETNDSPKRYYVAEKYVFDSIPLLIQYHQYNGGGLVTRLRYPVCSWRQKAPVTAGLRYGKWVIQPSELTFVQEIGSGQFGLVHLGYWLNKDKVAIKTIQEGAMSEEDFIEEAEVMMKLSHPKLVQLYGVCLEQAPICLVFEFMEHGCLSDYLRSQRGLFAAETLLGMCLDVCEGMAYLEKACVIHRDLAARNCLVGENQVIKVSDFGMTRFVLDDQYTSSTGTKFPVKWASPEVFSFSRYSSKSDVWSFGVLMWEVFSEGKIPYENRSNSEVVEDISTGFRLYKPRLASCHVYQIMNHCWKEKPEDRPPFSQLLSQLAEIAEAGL
Procedure: Substrate used in each experiment is indicated above each set of blots. 4(a) (left) Itk 32 substrate was incubated with Itk full-length enzyme as before (lane 1), or with Itk 32 domain:free Itk SH2 domain in ratios of 1:10, 1:25 or 1:50 (lanes 2-4, respectively) or equivalent ratios of PI3K N-terminal SH2 domain (lanes 5-7) and subjected to an in vitro kinase assay. […] Coomassie stain and an anti-FLAG blot (bottom panels) show protein levels. (right) The PLCγ1 SH2 domain competes with the PLCγ1 substrate in a similar manner. Lane 1 contains only Itk enzyme and PLCγ1 SH2C-Y783-substrate without additional free SH2 domain. Ratios of free SH2 domain to substrate are 1:5, 1:10 or 1:50 in lanes 2-4, respectively and equivalent ratios of PI3K SH2 domain are used in lanes 5-7. Coomassie stain of the gel and an anti-Itk blot (bottom panels) show protein levels. 4(b) Same experiment as shown in (a) using the Grb2 SH2 domain as a control. (left) Itk 32 substrate was incubated with Itk full-length enzyme (lane 1), or with Itk 32 domain:free Itk SH2 domain in ratios of 1:10 and 1:25 (lanes 2 & 3) or equivalent ratios of Grb2 SH2 domain (lanes 4 & 5) and subjected to an in vitro kinase assay. (right) Identical experiment following PLCγ1 substrate phosphorylation in the presence of the PLCγ1 and Grb2 SH2 domains. Lane 1 is PLCγ1 substrate alone; lanes 2 & 3 are PLCγ1 substrate:PLCγ1 SH2 domain in a 1:10 and 1:25 ratio, respectively and lanes 4 & 5 are identical ratios of PLCγ1 substrate:Grb2 SH2 domain. 4(c) The Itk SH2 domain competes with autophosphorylation of Y180 within full length Itk. For lanes 2-4, the amount of free SH2 domain is the same as used in panel (a), lanes 2-4. No exogenous SH2 domain has been added in lane 1 and full length Itk is both the enzyme and the substrate. Coomassie stain and an anti-FLAG blot (bottom panels) show protein levels. […] Initial velocities are shown for phosphorylation of peptide B (sequence shown in FIG. 5a) by full length Itk in the absence (column 1) and presence (column 2 and 3) of Itk SH2 domain. […]

full length Itk = biological target: T3, full length Itk (Mus musculus, UniProt Q03526); test: In vitro Itk kinase assay using Peptide B as the substrate (initial velocities); assay type: biochemical; conditions: CypA to Itk 0 to 100 times excess; Itk 100 and 600 nM
T3 construct: made in house; host or cells: Sf9 insect cells (baculovirus), co-infected 1:1 with Lck baculovirus
T3 sequence (Q03526 1-625): T2 sequence (Q03526 1-625)
Procedure: Substrate used in each experiment is indicated above each set of blots. 4(a) (left) Itk 32 substrate was incubated with Itk full-length enzyme as before (lane 1), or with Itk 32 domain:free Itk SH2 domain in ratios of 1:10, 1:25 or 1:50 (lanes 2-4, respectively) or equivalent ratios of PI3K N-terminal SH2 domain (lanes 5-7) and subjected to an in vitro kinase assay. […] Coomassie stain and an anti-FLAG blot (bottom panels) show protein levels. (right) The PLCγ1 SH2 domain competes with the PLCγ1 substrate in a similar manner. Lane 1 contains only Itk enzyme and PLCγ1 SH2C-Y783-substrate without additional free SH2 domain. Ratios of free SH2 domain to substrate are 1:5, 1:10 or 1:50 in lanes 2-4, respectively and equivalent ratios of PI3K SH2 domain are used in lanes 5-7. Coomassie stain of the gel and an anti-Itk blot (bottom panels) show protein levels. 4(b) Same experiment as shown in (a) using the Grb2 SH2 domain as a control. (left) Itk 32 substrate was incubated with Itk full-length enzyme (lane 1), or with Itk 32 domain:free Itk SH2 domain in ratios of 1:10 and 1:25 (lanes 2 & 3) or equivalent ratios of Grb2 SH2 domain (lanes 4 & 5) and subjected to an in vitro kinase assay. […]
The ratio of CypA to Itk varied between o and 100 times excess CypA. […] No change in Peptide B phosphorylation is detected. […]

Itk = biological target: T4, Itk (Mus musculus, UniProt Q03526); test: Pull-down experiment using purified Itk and purified CypA; assay type: binding; conditions: full length Itk or kinase domain alone immobilized on beads
T4 construct: Full-length Itk, Btk and Tec and the Itk kinase domain fragments were PCR amplified; made in house; host or cells: Sf9 insect cells (baculovirus), co-infected 1:1 with Lck baculovirus
T4 sequence (Q03526 1-625): T2 sequence (Q03526 1-625)
Procedure: In FIG. 16 full length Itk is immobilized on beads that are incubated with CypA. In FIG. 17 the kinase domain alone is immobilized on beads and incubated with CypA. […] The kinase domain alone contains the substrate docking site and so it is likely that CypA interacts with the Itk kinase domain in a manner that either completely or partially occludes the SH2 docking site.

Itk full-length enzyme [2] = biological target: T2, Itk full-length enzyme; conditions: published data (Brazin et al. 2002); cited from earlier work

Aminohexanoyl biotin-EQEDEPEGIYGVLF-NH2 [Peptide B, reference compound]
Km (Itk LKD enzyme): 87 µM

CypA: peptidyl-prolyl isomerase Cyclophilin A, target of the immunosuppressive drug cyclosporin A
effect on phosphorylation of Itk SH3-SH2 protein substrate (Y180) (Itk full-length enzyme [1]; CypA:Itk 32 ratios 0.1:1, 1:1, 10:1, 25:1, signal reduced at 10:1 and 25:1): reduce phosphorylation | effect on phosphorylation kinetics of Peptide B (full length Itk): no effect | interaction with Itk (pull-down) (Itk): interacts directly with Itk | effect on autophosphorylation of Itk in an in vitro kinase assay (Itk full-length enzyme [2]): reduces autophosphorylation of Itk

Grb2 SH2 domain: Grb2 SH2 domain, control SH2 domain [reference compound]
inhibition of PLCγ1 SH2C-Y783- substrate phosphorylation by free SH2 domain (Itk full-length enzyme [1]; substrate:free SH2 domain ratios 1:5 to 1:50): do not inhibit | inhibition of Itk 32 substrate phosphorylation (Y180) by free SH2 domain (Itk full-length enzyme [1]; substrate:free SH2 domain ratios 1:10, 1:25, 1:50): do not inhibit
